Two substances from patent publication US20210102195A1 can be followed below.

In assay [1] the target is human CD3 epsilon (human) (UniProt P07766). The assay is described as follows: flow cytometry (MFI), titration 0.05-100 nM; cells not named on the panel, the same value stands for CD8+ T-Cell in FIG. 29F. Background: Flow cytometry measures light scatter and fluorescence of single cells or particles in a stream.
For assay [2] the target is unchanged. As to the kind of experiment: flow cytometry (MFI), titration 0.05-100 nM on Jurkat cells (2901).
Assay [3] has the same target. The assay is described as follows: flow cytometry (MFI), titration 0.05-100 nM on CD8+ T cells (2903).
The target is the same in assay [4]. The assay is described as follows: biosensor sensorgrams with fits, instrument not named in Example 14; antigen not printed on the panel: taken as human CD3 epsilon because 28G-28I and 28J-28L repeat the same three spots (57, 169, 205) and the text gives 67 nM (28G) for human and 107 nM (28J) for cyno.
The target in a further assay is cyno CD3 epsilon (cyno) (UniProt Q95LI5). The assay is described as follows: biosensor sensorgrams with fits, instrument not named in Example 14; antigen not printed on the panel: taken as cyno CD3 epsilon because 28G-28I and 28J-28L repeat the same three spots (57, 169, 205) and the text gives 67 nM (28G) for human and 107 nM (28J) for cyno.
cyno CD3 epsilon (cyno), sequence (Q95LI5 22-117 limits assumed): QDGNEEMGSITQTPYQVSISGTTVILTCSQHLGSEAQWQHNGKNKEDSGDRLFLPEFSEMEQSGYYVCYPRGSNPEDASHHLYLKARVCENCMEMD

human CD3 epsilon (human), sequence (P07766 23-126 limits assumed): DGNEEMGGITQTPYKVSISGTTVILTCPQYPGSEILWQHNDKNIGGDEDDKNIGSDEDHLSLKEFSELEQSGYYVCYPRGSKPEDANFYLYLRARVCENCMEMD

As usually defined, the EC50 is the concentration needed to bring the measured effect to its halfway point. Low values mean a more potent agent, high ones a less potent agent. As to R&D MAB100 (antibody), the EC50 in assay [1] came to 3.05 nM; in assay [2], 0.537 nM; in assay [3], 3.05 nM.

By Kd is commonly meant a measure of binding affinity in units of concentration. Lower therefore signals a tighter complex. For muSP34 (antibody), the dissociation constant (Kd) in assay [4] was below 0.0019 nM; with cyno CD3 epsilon (cyno) it was 38 nM.
